From PMC3796484

Biological target: spliced X-box binding protein (Xbp1s), P17861-2
Test: two-hybrid assay (Gal4 UAS-CAT reporter in transfected cells)
Settings: CAT activity normalized to β-galactosidase internal control; P=.008; parent: est. 3.4; read off a plot

Chain of spliced X-box binding protein (Xbp1s), P17861-2 (P17861 other isoform, or with tags, fused parts or gaps): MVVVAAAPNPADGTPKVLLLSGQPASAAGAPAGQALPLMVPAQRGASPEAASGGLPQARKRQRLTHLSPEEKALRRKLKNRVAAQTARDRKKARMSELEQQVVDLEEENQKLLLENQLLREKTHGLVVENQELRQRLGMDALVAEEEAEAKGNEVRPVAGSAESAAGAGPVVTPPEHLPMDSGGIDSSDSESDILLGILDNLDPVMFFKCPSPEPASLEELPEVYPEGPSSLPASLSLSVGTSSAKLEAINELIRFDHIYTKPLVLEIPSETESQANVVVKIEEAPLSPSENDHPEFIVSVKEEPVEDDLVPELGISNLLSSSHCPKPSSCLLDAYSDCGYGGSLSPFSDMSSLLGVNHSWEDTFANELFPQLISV

For “Zhangfei linked to the DNA-binding domain of yeast GAL4 (from UniProt Q9NS37) ZF(L/A)”, the other: Ratio (with:without activator) was 1.
